The values that follow come from article PMC7708078, “How to limit the speed of a motor: the intricate regulation of the XPB ATPase and translocase in TFIIH” (Nucleic Acids Research, 2020).

Data set [1] has as its system ctXPB (Chaetomium thermophilum). As to the kind of experiment: fluorescence polarization. To be noted: 20 mM HEPES pH 7.5, 10 mM KCl, 2.5 mM MgCl2, 1 mM TCEP, 6 nM DNA, room temperature. (Fluorescence polarisation rises when a labelled molecule tumbles more slowly, as on binding a larger partner.)
The test system of data set [2] is ctXPB;ctp52;ctp8 (Chaetomium thermophilum;Chaetomium thermophilum;Chaetomium thermophilum). Briefly: fluorescence polarization. To be noted: ctp52/ctp8 2:1 to ctXPB; Kd in nM XPB; 2.5 mM MgCl2, no ATP stated; 20 mM HEPES pH 7.5, 10 mM KCl, 2.5 mM MgCl2, 1 mM TCEP, 6 nM DNA, room temperature.
In data set [3] the target is ctXPB (from E. coli) (Chaetomium thermophilum).
Data set [4] shares this target. The source holds these as a separate data set.
Data set [5] has the same target. The source holds these as a separate data set.

Usually Kd stands for the constant that tells how readily two partners part at equilibrium.

For “AGCTACCATGCCTGCACGAATTAAGCAATTCGTAATCATGGTCATAGC (double strand) [Cy3-dsDNA 48 bp]”, the values for the Kd in data set [1] and in data set [2] were 77 nM and 51 nM, respectively.

The substance ctp52 (natural protein) had an ATPase activity of ctXPB on titration of the co-purified ctp52/ctp34 complex to a fixed amount of ctXPB (Vmax 9.3 μmol ATP*l^−1*min^−1); EC50 in data set [3] of 178 nM.

The substance “ctp52/ctp8 complex (wild type, co-purified)” had an ATPase activity of ctXPB on titration of the co-purified ctp52/ctp8 complex to a fixed amount of ctXPB (full activation 20.1 μmol ATP*l^−1*min^−1); EC50 in data set [3] of 153 nM. In data set [4], the decrease of the dsDNA-activated ATPase activity of ctXPB (from 58.8 to 18.9 μmol ATP*l^−1*min^−1) on titration of ctp52/ctp8 to an equimolar ctXPB/DNA complex; EC50 is 138 nM.

ctp52_E359K/R363E / ctp8 complex showed an activation of ctXPB's ATPase by the ctp52/ctp8 variant, percent of wild type ctp52/ctp8 (% of wild type) in data set [5] of 6.

In data set [5], ctp52_E359K/ctp8 complex registered an activation of ctXPB's ATPase by the ctp52/ctp8 variant, percent of wild type ctp52/ctp8 (% of wild type) of 5.

Take ctp52_F387K/ctp8 complex: the activation of ctXPB's ATPase by the ctp52/ctp8 variant, percent of wild type ctp52/ctp8 (% of wild type) in data set [5] worked out at 46.

In data set [5], ctp52_M390E/ctp8 complex returned an activation of ctXPB's ATPase by the ctp52/ctp8 variant, percent of wild type ctp52/ctp8 (% of wild type) of 57.

ctp52_R363E/ctp8 complex returned an activation of ctXPB's ATPase by the ctp52/ctp8 variant, percent of wild type ctp52/ctp8 (% of wild type) in data set [5] of 134.

With ctp52_R386L/ctp8 complex, the activation of ctXPB's ATPase by the ctp52/ctp8 variant, percent of wild type ctp52/ctp8 (% of wild type) in data set [5] was 116.

Consider ctp52_Y365A/ctp8 complex, for which the activation of ctXPB's ATPase by the ctp52/ctp8 variant, percent of wild type ctp52/ctp8 (% of wild type) in data set [5] stood at 53.
